Laboratory results as given in the supplement of paper PMC9732359.
± gives the uncertainty stated by the source.

Assay: protein stability index of a GFP-peptide fusion (yeast GPS) (PSI 1-4); higher = more stable; sorted into four equal gates, so the index is relative within each strain
Method in brief: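 Sequencing reads from sorted gates were used to score each peptide. The library consisted of tiled 17-residue yeast protein peptides fused downstream of GFP on a Cherry-expressing plasmid, pooled and carried in yeast. Mid-log cultures in leucine-free medium were split into four equal gates by GFP/Cherry ratio, and each gate's plasmids were PCR-amplified and Illumina-sequenced. The protein stability index adds up, over all gates, the read frequency multiplied by the gate number.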

Row | Sequence | protein stability index (doa10∆) | protein stability index (san1∆) | protein stability index (ubr1∆) | protein stability index (pdr5∆)
1 | VNIVEKDGAKFIEVRNF [RPL9A] | 3.38 ± 0.19 | 3.02 ± 0.2 | 1.71 ± 0.24 | 
2 | DQLAVSPEQIDASPDSL [YCS4] | 1.62 ± 0.071 | 1.65 ± 0.1 | 1.86 ± 0.06 | 1.89 ± 0.081
3 | TGEFDFEAAVKMSDGFN [RPT4] | 2.91 ± 0.15 | 2.57 ± 0.18 | 3.31 ± 0.16 | 3.33 ± 0.14
4 | KGNFRTKPFENVEKYPT [SNU114] |  | 3.16 ± 0.25 |  | 3 ± 0.24
5 | KTITLEVESSDTIDNVK [RPS31] | 2.88 ± 0.1 | 2.77 ± 0.12 | 2.64 ± 0.086 | 3.08 ± 0.062
6 | IPGEEVEETEVPTVPPS [MED4] | 2.66 ± 0.11 | 2.44 ± 0.13 | 2.62 ± 0.059 | 2.42 ± 0.11
7 | EVINKEIENATKDIFPL [RPS1A] | 3.25 ± 0.29 | 2.9 ± 0.13 | 3.16 ± 0.082 | 2.74 ± 0.19
8 | SMDTKKKHKQKKVLEID [BRN1] | 3.36 ± 0.063 | 3.32 ± 0.039 | 3.33 ± 0.044 | 3.32 ± 0.057
9 | QRGKMHGLKQLRDSLAD [NUT2] | 3.04 ± 0.077 | 1.48 ± 0.071 | 2.1 ± 0.06 | 2.67 ± 0.062
10 | VDENDEVLLAGFGRKGK [RPS23A] | 1.08 ± 0.084 | 1.15 ± 0.11 | 1.24 ± 0.068 | 1.41 ± 0.076
11 | NQLTESASHFEQYTKKI [YJL041W/NSP1] | 2.28 ± 0.086 | 2.76 ± 0.082 | 2.5 ± 0.095 | 2.45 ± 0.065
12 | ANIELTWAEGTFEQFKD [RPC37] | 3.25 ± 0.12 | 3.31 ± 0.16 | 3.32 ± 0.093 | 3.18 ± 0.076
13 | KARNGLDYVRTPAAATS [SNF2] | 2.4 ± 0.059 | 2.12 ± 0.08 | 2.35 ± 0.049 | 2.44 ± 0.072
14 | AKALESLASCLRSTEYS [POP1] | 3.08 ± 0.16 | 2.8 ± 0.13 | 2.61 ± 0.17 | 3.25 ± 0.14
15 | NRQTLMFTATMTPVIEK [PRP28] | 2.56 ± 0.061 | 2.42 ± 0.052 | 2.44 ± 0.043 | 2.62 ± 0.052
16 | SGKARICIVGGYDDFQE [FAS2] | 2.91 ± 0.15 | 3.36 ± 0.11 | 1.56 ± 0.17 | 2.24 ± 0.1
17 | MKIQAGQLGLDDNDVPG [YLR018C/POM34] | 3.22 ± 0.19 | 2.5 ± 0.21 | 3.11 ± 0.29 | 3 ± 0.14
18 | LQSISSLTISLYASDYA [RPN7] | 1.71 ± 0.031 | 1.83 ± 0.039 | 1.95 ± 0.027 | 1.84 ± 0.03
19 | PSVNDFVIGVIIGTFSD [RRP40] | 1.64 ± 0.06 | 2.15 ± 0.077 | 2.56 ± 0.084 | 2.51 ± 0.07
20 | FILELEHKTPELISFKE [YIL149C/MLP2] | 2.86 ± 0.081 | 2.96 ± 0.1 | 3.29 ± 0.086 | 3.05 ± 0.086
21 | LAPELNQAIWKRGVKGV [RPL31A] |  |  | 1.57 ± 0.19 | 2.04 ± 0.22
22 | SFVFGQAAAKPSLEKSS [YLR335W/NUP2] | 1.79 ± 0.1 | 2.21 ± 0.14 | 2.67 ± 0.09 | 2.5 ± 0.1
23 | NAIQTEVYGINEESTNE [SIR4] |  | 2.9 ± 0.25 |  | 3.03 ± 0.3
24 | AKETHTKPSETPATIVK [YOR098C/NUP1] | 3.28 ± 0.092 | 2.87 ± 0.064 | 3.12 ± 0.066 | 3.17 ± 0.066
25 | DTLKDISTSFCFICLLH [BRN1] | 2.01 ± 0.081 | 2.27 ± 0.14 | 1.95 ± 0.083 | 2.44 ± 0.072
26 | MSVPAIAPRRKRLADGL [DIS3] | 3.37 ± 0.095 | 3.26 ± 0.078 | 3.11 ± 0.063 | 3.18 ± 0.11
27 | NGQPLNQNFSLTFQPQQ [GRR1] | 3.09 ± 0.051 | 3.04 ± 0.051 | 3.01 ± 0.043 | 3.12 ± 0.047
